Measurements reported in patent US11236354B2, “Glyphosate-n-acetyltransferase (GLYAT) sequences and methods of use” (PIONEER HI-BRED INTERNATIONAL, INC., priority 2013, dated 2022).

Tests used:
N[C@@H](CC(=O)O)C(=O)O = assay: cells, lysate or membranes named; conditions: 37.0 °C
Method: (§1) Kinetic parameters for various substrates were obtained using a range of seven substrate concentrations plus a blank containing none of the varied substrate. The non-varied substrate was present at a saturating concentration. Six-microliter aliquots of 50-fold concentrated stock solutions of the varied substrate were placed in a 96-well assay plate (Greiner BioOne UV-Star). Reactions were started with the addition of 294 ul of 25 mM Hepes, pH 7.0, 100 mM KCL, 10% ethylene glycol, the non-varied substrate and 10 to 200 nM enzyme. Absorbance was monitored for one minute with a Spectramax 384 Plus plate reader (Molecular Devices). If the amino acid present at position 30 (29 if alanine is absent at position 2) was cysteine, absorbance was monitored at 235 nm, which directly detects cleavage of the sulfoester bond of acetyl CoA. If the amino acid present at position 30 (29 if alanine is absent at position 2) was isoleucine, 0.5 mM 5,5′-dithiobis-(2-nitrobenzoic acid), which reacts with the coenzyme A thiol generated in the enzyme catalyzed reaction, was included in the reaction mix and absorbance was monitored at 412 nm. Initial rates were processed by the Softmax software to obtain kinetic parameters, using the double-reciprocal transformation.
O=C(O)CNCP(=O)(O)O [1] = assay: cells, lysate or membranes named; conditions: 37.0 °C
Method: as §1
O=C(O)CNCP(=O)(O)O [2] = assay: Substrate saturation kinetic analysis of purified GLYAT; format: biochemical; conditions: other: SEQ ID NO:7, pH 7.0, non-varied substrate saturating, 37.0 °C
Method: E. coli cultures in LB or 2×YT were grown overnight at 37° C. to saturation. The cells were used as a 2% inoculum into fresh media. When OD reached 0.6, IPTG was added to 0.2 mM and growth was continued for at least 6 hours. Cells were harvested by centrifugation and stored at −80° C. Cells were lysed with BPER (Pierce) containing 1 mM dithiothreitol, 0.2 mg/ml lysozyme, 2 mg/ml protease inhibitor cocktail (Sigma bacterial cell cocktail, P8465) and endonuclease. Lysate supernatants were passed through a column of NHS-activated Agarose (Thermo, #26197) derivatized with coenzyme A. Columns were washed with 25 mM Hepes, pH 7, containing progressively higher concentrations of KCl, then eluted with 25 mM Hepes, 100 mM KCl, 10% ethylene glycol and 1 mM acetyl CoA. Purity as evaluated by polyacrylamide gel electrophoresis was deemed consistently high enough to be assumed to be 100%. Protein concentration was determined with the Bradford assay using a large-scale lot of produced GLYAT protein as standard.
Kinetic parameters for various substrates were obtained using a range of seven substrate concentrations plus a blank containing none of the varied substrate. The non-varied substrate was present at a saturating concentration. Six-microliter aliquots of 50-fold concentrated stock solutions of the varied substrate were placed in a 96-well assay plate (Greiner BioOne UV-Star). […] Absorbance was monitored for one minute with a Spectramax 384 Plus plate reader (Molecular Devices). If the amino acid present at position 30 (29 if alanine is absent at position 2) was cysteine, absorbance was monitored at 235 nm, which directly detects cleavage of the sulfoester bond of acetyl CoA. If the amino acid present at position 30 (29 if alanine is absent at position 2) was isoleucine, 0.5 mM 5,5′-dithiobis-(2-nitrobenzoic acid), which reacts with the coenzyme A thiol generated in the enzyme catalyzed reaction, was included in the reaction mix and absorbance was monitored at 412 nm. […]

[3] = other: SEQ ID NO:5, pH 7.0, non-varied substrate saturating
[4] = other: SEQ ID NO:6, pH 7.0, non-varied substrate saturating
[5] = other: SEQ ID NO:8, pH 7.0, non-varied substrate saturating
[6] = other: SEQ ID NO:9, pH 7.0, non-varied substrate saturating
[7] = other: SEQ ID NO:10, pH 7.0, non-varied substrate saturating

GLYAT variant SEQ ID NO:5 (derived from SEQ ID NO:1 and 2) (Bacillus licheniformis DSM 13 = ATCC 14580; A28V/D131E/E14D/E65Q/E67K/E68K/G37R/I132T/I135A/I15L/I19V/I53V/I91V/K101R/K144R/K58Q/L105M/L106I/L26I/L97I/M75V/R47G/R92K/T89S/V114A/Y130F/Y45F)
Km (N[C@@H](CC(=O)O)C(=O)O; [3]): 79100 µM | kcat (N[C@@H](CC(=O)O)C(=O)O; [3]): 3.58 s⁻¹ | kcat/Km (N[C@@H](CC(=O)O)C(=O)O; [3]): 45.3 M⁻¹ s⁻¹ | Km (O=C(O)CNCP(=O)(O)O [1]; [3]): 230 µM | kcat (O=C(O)CNCP(=O)(O)O [1]; [3]): 16.98 s⁻¹ | kcat/Km (O=C(O)CNCP(=O)(O)O [1]; [3]): 76470 M⁻¹ s⁻¹

GLYAT variant SEQ ID NO:6 (derived from SEQ ID NO:1 and 2) (Bacillus licheniformis DSM 13 = ATCC 14580; A28V/D131E/E119K/E14D/E65Q/E67K/E68K/G37R/I132T/I135A/I15L/I19V/I53V/I91V/K101R/K144R/K58Q/L105M/L106I/L26I/L36T/L97I/M75A/R47G/R92K/T89S/V114A/V4I/Y130F/Y45F/Y46C)
Km (N[C@@H](CC(=O)O)C(=O)O; [4]): 66800 µM | kcat (N[C@@H](CC(=O)O)C(=O)O; [4]): 0.183 s⁻¹ | kcat/Km (N[C@@H](CC(=O)O)C(=O)O; [4]): 2.67 M⁻¹ s⁻¹ | Km (O=C(O)CNCP(=O)(O)O [1]; [4]): 2240 µM | kcat (O=C(O)CNCP(=O)(O)O [1]; [4]): 11.2 s⁻¹ | kcat/Km (O=C(O)CNCP(=O)(O)O [1]; [4]): 5130 M⁻¹ s⁻¹

GLYAT variant SEQ ID NO:7 (derived from SEQ ID NO:1 and 2) (Bacillus licheniformis DSM 13 = ATCC 14580; A28V/D131E/E119K/E14D/E65Q/E67K/E68K/E79G/E83D/G37R/G38S/G48A/I132L/I135A/I15L/I19V/I2L/I53V/I91V/K101R/K144R/K58Q/L105M/L106I/L26I/L36T/L97I/M75V/N109F/R47G/R92K/T33S/T89S/V114A/Y130F/Y31W/Y45F)
Km (O=C(O)CNCP(=O)(O)O [2]): 800 µM | kcat (O=C(O)CNCP(=O)(O)O [2]): 7.13 s⁻¹ | kcat/Km (O=C(O)CNCP(=O)(O)O [2]): 8870 M⁻¹ s⁻¹

GLYAT variant SEQ ID NO:8 (derived from SEQ ID NO:1 and 2) (Bacillus licheniformis DSM 13 = ATCC 14580; A28V/D131E/E119K/E14D/E65Q/E67K/E68K/E83D/G37R/G38S/I132T/I135A/I15L/I53V/I91V/K101R/K144R/K58Q/L105M/L106I/L26I/L36T/L97I/M75V/N8S/R47G/R92K/T89S/V114A/Y130F/Y45F)
Km (N[C@@H](CC(=O)O)C(=O)O; [5]): 60000 µM | kcat (N[C@@H](CC(=O)O)C(=O)O; [5]): 1.42 s⁻¹ | kcat/Km (N[C@@H](CC(=O)O)C(=O)O; [5]): 23.5 M⁻¹ s⁻¹ | Km (O=C(O)CNCP(=O)(O)O [1]; [5]): 390 µM | kcat (O=C(O)CNCP(=O)(O)O [1]; [5]): 11.4 s⁻¹ | kcat/Km (O=C(O)CNCP(=O)(O)O [1]; [5]): 29650 M⁻¹ s⁻¹

GLYAT variant SEQ ID NO:9 (derived from SEQ ID NO:1 and 2) (Bacillus licheniformis DSM 13 = ATCC 14580; A28V/D131E/E119K/E14D/E65Q/E67K/E68K/G37R/G38S/I132T/I135A/I15L/I19V/I53V/I91V/K101R/K144R/K58Q/L105M/L26I/L97I/M75V/R47G/R92K/T89S/V114A/Y130F/Y45F)
Km (N[C@@H](CC(=O)O)C(=O)O; [6]): 78700 µM | kcat (N[C@@H](CC(=O)O)C(=O)O; [6]): 2.58 s⁻¹ | kcat/Km (N[C@@H](CC(=O)O)C(=O)O; [6]): 33.3 M⁻¹ s⁻¹ | Km (O=C(O)CNCP(=O)(O)O [1]; [6]): 250 µM | kcat (O=C(O)CNCP(=O)(O)O [1]; [6]): 11.6 s⁻¹ | kcat/Km (O=C(O)CNCP(=O)(O)O [1]; [6]): 45430 M⁻¹ s⁻¹

GLYAT variant SEQ ID NO:10 (derived from SEQ ID NO:1 and 2) (Bacillus licheniformis DSM 13 = ATCC 14580; A28V/D131E/E14D/E65Q/E67K/E68K/G37R/G38S/H61R/I132T/I135A/I15L/I19V/I53V/I91V/K101R/K144R/K58Q/L105M/L106I/L26I/L97I/M75V/R47G/R92K/T89S/V114A/Y130F/Y45F)
Km (N[C@@H](CC(=O)O)C(=O)O; [7]): 89300 µM | kcat (N[C@@H](CC(=O)O)C(=O)O; [7]): 2.48 s⁻¹ | kcat/Km (N[C@@H](CC(=O)O)C(=O)O; [7]): 28.2 M⁻¹ s⁻¹ | Km (O=C(O)CNCP(=O)(O)O [1]; [7]): 370 µM | kcat (O=C(O)CNCP(=O)(O)O [1]; [7]): 11.6 s⁻¹ | kcat/Km (O=C(O)CNCP(=O)(O)O [1]; [7]): 31680 M⁻¹ s⁻¹
